The target in data set [1] is minimal mature VEGF-C refolded from E. coli inclusion bodies (human). Kind of data set: SEC; refolded, dialysed and concentrated material on Superdex 75 10/300 GL in PBS, 0.5-0.6 mL/min; calibrated with BSA, carbonic anhydrase and RNaseA; dimeric fractions 11.5-13.5 mL, monomeric fractions 13.5-15.5 mL. In general terms: SEC sorts molecules by how far they enter the pores of the column.

Data set [2] can be described thus: IP of 35S-labelled 293T supernatants and lysates, SDS-PAGE. The conditions noted are these: glycan lost; control: wild type.

In general, stoichiometry N refers to a count of units in the complex or per binding partner. On to “minimal mature VEGF-C refolded from E. coli inclusion bodies (domain or fragment)”, for which the stoichiometry N in data set [1] was determined as 2.

B1: VEGF-C: N175,205W (protein)
parent chain: MHLLGFFSVACSLLAAALLPGPREAPAAAAAFESGLDLSDAEPDAGEATAYASKDLEEQLRSVSSVDELMTVLYPEYWKMYKCQLRKGGWQHNREQANLNSRTEETIKFAAAHYNTEILKSIDNEWRKTQCMPREVCIDVGKEFGVATNTFFKPPCVSVYRCGGCCNSEGLQCMNTSTSYLSKTLFEITVPLSQGPKPVTISFANHTSCRCMSKLDVYRQVHSIIRRSLPATLPQCQAANKTCPTNYMWNNHICRCLAQEDFMFSSDAGDDSTDGFHDICGPNKELDEETCQCVCRAGLRPASCGPHKELDRNSCQCVCKNKLFPSQCGANREFDENTCQCVCKRTCPRNQPLNPGKCACECTESPQKCLLKGKKFHHQTCSCYRRPCTNRQKACEPGFSYSEEVCRCVPSYWKRPQMS
With B1, in data set [2], the expression_or_secretion entry is recorded as “abolishes”.

B2: VEGF-C: N175,205Q (protein)
parent chain: B1 parent chain
Take B2: the expression_or_secretion result in data set [2] is “abolishes”.

For the origin of these results see paper PMC9616921.
